Laboratory results: patent US20140087995A1 (published 2014)
Numbered stars: 1 amine (or outer) side, 2 acyl side, 3 side chain; on linkers, the order of the positions; unused ones are H or OH. Bridge positions count the residues as written; N and C are the ends. Square brackets hold non-standard residues; d marks the D form. Side chains are listed from the residue outwards. Ends that are not written are not given here. * marks the point of attachment. C20 diacid = O=C(O)CCCCCCCCCCCCCCCCCCC(=O)*; γGlu = O=C(O)[C@H](CCC(=O)[*:2])N[*:1]; C14 diacid = O=C(O)CCCCCCCCCCCCC(=O)*; AEEA = NCCOCCOCC(=O)O

T1: human calcitonin receptor (human, UniProt P30988 25-474)
T1 sequence (looked up): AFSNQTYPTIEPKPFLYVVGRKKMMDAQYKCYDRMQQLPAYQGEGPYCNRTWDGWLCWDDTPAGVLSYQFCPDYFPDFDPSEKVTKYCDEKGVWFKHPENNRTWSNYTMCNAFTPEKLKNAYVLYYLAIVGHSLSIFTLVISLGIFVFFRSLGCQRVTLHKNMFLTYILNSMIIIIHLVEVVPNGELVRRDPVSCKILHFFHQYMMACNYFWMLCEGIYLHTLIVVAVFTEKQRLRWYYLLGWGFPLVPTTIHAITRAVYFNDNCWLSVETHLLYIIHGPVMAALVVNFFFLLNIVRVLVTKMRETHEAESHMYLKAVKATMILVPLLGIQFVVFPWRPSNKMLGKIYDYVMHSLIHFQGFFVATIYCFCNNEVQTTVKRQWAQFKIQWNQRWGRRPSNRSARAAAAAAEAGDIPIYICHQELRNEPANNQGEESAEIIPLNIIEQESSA

T2: human calcitonin receptor (human, UniProt P30988 25-474)
T2 sequence (looked up): T1 sequence (looked up)

B1: N^ε1-[2-[2-[2-(19-carboxynonadecanoylamino)ethoxy]ethoxy]acetyl]-[Arg17,Pro21,Pro27,His34]-h-amylin (peptide)
peptide: K([AEEA-C20 diacid])CNTATCATQRLANFLRHSSPNFGAIPSSTNVGHNTY-NH2
modifications: disulfide 2-7; N-terminus assumed
SMILES: CC[C@H](C)[C@H](NC(=O)[C@H](C)NC(=O)CNC(=O)[C@H](Cc1ccccc1)NC(=O)[C@H](CC(N)=O)NC(=O)[C@@H]1CCCN1C(=O)[C@H](CO)NC(=O)[C@H](CO)NC(=O)[C@H](Cc1c[nH]cn1)NC(=O)[C@H](CCCNC(=N)N)NC(=O)[C@H](CC(C)C)NC(=O)[C@H](Cc1ccccc1)NC(=O)[C@H](CC(N)=O)NC(=O)[C@H](C)NC(=O)[C@H](CC(C)C)NC(=O)[C@H](CCCNC(=N)N)NC(=O)[C@H](CCC(N)=O)NC(=O)[C@@H](NC(=O)[C@H](C)NC(=O)[C@@H]1CSSC[C@H](NC(=O)[C@@H](N)CCCCNC(=O)COCCOCCNC(=O)CCCCCCCCCCCCCCCCCCC(=O)O)C(=O)N[C@@H](CC(N)=O)C(=O)N[C@@H]([C@@H](C)O)C(=O)N[C@@H](C)C(=O)N[C@@H]([C@@H](C)O)C(=O)N1)[C@@H](C)O)C(=O)N1CCC[C@H]1C(=O)N[C@@H](CO)C(=O)N[C@@H](CO)C(=O)N[C@H](C(=O)N[C@@H](CC(N)=O)C(=O)N[C@H](C(=O)NCC(=O)N[C@@H](Cc1c[nH]cn1)C(=O)N[C@@H](CC(N)=O)C(=O)N[C@H](C(=O)N[C@@H](Cc1ccc(O)cc1)C(N)=O)[C@@H](C)O)C(C)C)[C@@H](C)O
notes: also called compound 91
B2: N^ε1-[(4S)-4-carboxy-4-(13-carboxytridecanoylamino)butanoyl]-[Arg17,Pro21,Pro27,His34]-h-amylin (peptide)
peptide: K([γGlu-C14 diacid])CNTATCATQRLANFLRHSSPNFGAIPSSTNVGHNTY-NH2
modifications: disulfide 2-7; N-terminus assumed
SMILES: CC[C@H](C)[C@H](NC(=O)[C@H](C)NC(=O)CNC(=O)[C@H](Cc1ccccc1)NC(=O)[C@H](CC(N)=O)NC(=O)[C@@H]1CCCN1C(=O)[C@H](CO)NC(=O)[C@H](CO)NC(=O)[C@H](Cc1c[nH]cn1)NC(=O)[C@H](CCCNC(=N)N)NC(=O)[C@H](CC(C)C)NC(=O)[C@H](Cc1ccccc1)NC(=O)[C@H](CC(N)=O)NC(=O)[C@H](C)NC(=O)[C@H](CC(C)C)NC(=O)[C@H](CCCNC(=N)N)NC(=O)[C@H](CCC(N)=O)NC(=O)[C@@H](NC(=O)[C@H](C)NC(=O)[C@@H]1CSSC[C@H](NC(=O)[C@@H](N)CCCCNC(=O)CC[C@H](NC(=O)CCCCCCCCCCCCC(=O)O)C(=O)O)C(=O)N[C@@H](CC(N)=O)C(=O)N[C@@H]([C@@H](C)O)C(=O)N[C@@H](C)C(=O)N[C@@H]([C@@H](C)O)C(=O)N1)[C@@H](C)O)C(=O)N1CCC[C@H]1C(=O)N[C@@H](CO)C(=O)N[C@@H](CO)C(=O)N[C@H](C(=O)N[C@@H](CC(N)=O)C(=O)N[C@H](C(=O)NCC(=O)N[C@@H](Cc1c[nH]cn1)C(=O)N[C@@H](CC(N)=O)C(=O)N[C@H](C(=O)N[C@@H](Cc1ccc(O)cc1)C(N)=O)[C@@H](C)O)C(C)C)[C@@H](C)O
B3: N^ε1-[2-[2-[2-[[2-[2-[2-[[(4S)-4-carboxy-4-(19-carboxynonadecanoylamino)butanoyl]amino]ethoxy]ethoxy]acetyl]amino]ethoxy]ethoxy]acetyl]-[Arg17,Pro21,Pro27,His34 … (peptide)
peptide: K([AEEA-AEEA-γGlu-C20 diacid])CNTATCATQRLANFLRHSSPNFGAIPSSTNVGHNTY-NH2
modifications: disulfide 2-7; N-terminus assumed
SMILES: CC[C@H](C)[C@H](NC(=O)[C@H](C)NC(=O)CNC(=O)[C@H](Cc1ccccc1)NC(=O)[C@H](CC(N)=O)NC(=O)[C@@H]1CCCN1C(=O)[C@H](CO)NC(=O)[C@H](CO)NC(=O)[C@H](Cc1c[nH]cn1)NC(=O)[C@H](CCCNC(=N)N)NC(=O)[C@H](CC(C)C)NC(=O)[C@H](Cc1ccccc1)NC(=O)[C@H](CC(N)=O)NC(=O)[C@H](C)NC(=O)[C@H](CC(C)C)NC(=O)[C@H](CCCNC(=N)N)NC(=O)[C@H](CCC(N)=O)NC(=O)[C@@H](NC(=O)[C@H](C)NC(=O)[C@@H]1CSSC[C@H](NC(=O)[C@@H](N)CCCCNC(=O)COCCOCCNC(=O)COCCOCCNC(=O)CC[C@H](NC(=O)CCCCCCCCCCCCCCCCCCC(=O)O)C(=O)O)C(=O)N[C@@H](CC(N)=O)C(=O)N[C@@H]([C@@H](C)O)C(=O)N[C@@H](C)C(=O)N[C@@H]([C@@H](C)O)C(=O)N1)[C@@H](C)O)C(=O)N1CCC[C@H]1C(=O)N[C@@H](CO)C(=O)N[C@@H](CO)C(=O)N[C@H](C(=O)N[C@@H](CC(N)=O)C(=O)N[C@H](C(=O)NCC(=O)N[C@@H](Cc1c[nH]cn1)C(=O)N[C@@H](CC(N)=O)C(=O)N[C@H](C(=O)N[C@@H](Cc1ccc(O)cc1)C(N)=O)[C@@H](C)O)C(C)C)[C@@H](C)O
notes: also called compound 97

target: T1, human calcitonin receptor; assay: cell-based or functional assay

Binder | hCTR funct. EC50 (pM)
B1 | 1480 pM
B2 | 1090 pM
B3 | 11800 pM

target: T2, human calcitonin receptor; assay: cell-based or functional assay

Binder | hCTR funct. EC50 (pM)
K([γGlu-C20 diacid])CNTATCATQRLAEFLRHSSPNFGAIPSSTNVGPETY-NH2 (disulfide 2-7 (inferred), Synthetic) | 841 pM
K([γGlu-C20 diacid])CNTATCATQRLAEFLRHSSPNFGAIPSSTNVGHETY-NH2 (disulfide 2-7 (inferred), Synthetic; also called compound 107) | 2540 pM
K([γGlu-γGlu-C20 diacid])CNTATCATQRLAEFLRHSSPNFGAIPSSTNVGPRTY-NH2 (disulfide 2-7 (inferred), Synthetic; also called compound 110) | 8160 pM
K([γGlu-γGlu-C20 diacid])CNTATCATQRLADFLRHSSPNFGAIPSSTNVGPETY-NH2 (disulfide 2-7 (inferred), Synthetic) | 843 pM
K([γGlu-C20 diacid])CNTATCATQRLAEFLRHSSPNFGAIPSSTNVGSHTY-NH2 (disulfide 2-7 (inferred), Synthetic) | 5580 pM
K([γGlu-C20 diacid])CNTATCATQRLAEFLRHSSPNFGAIPSSTNVGPHTY-NH2 (disulfide 2-7 (inferred), Synthetic) | 1450 pM
K([γGlu-γGlu-C20 diacid])CNTATCATQRLAEFLRHSSPNFGAIPSSTNVGPHTY-NH2 (disulfide 2-7 (inferred), Synthetic) | 2830 pM
K([γGlu-C20 diacid])CNTATCATQRLAEFLRHSSPNFGAIPSSTNVGPRTY-NH2 (disulfide 2-7 (inferred), Synthetic) | 6380 pM
K([γGlu-γGlu-C20 diacid])CNTATCATQRLAEFLRHSSPNFGAIPSSTNVGRETY-NH2 (disulfide 2-7 (inferred), Synthetic) | 7430 pM
K([γGlu-γGlu-C20 diacid])CNTATCATQRLAEFLRHSSPNFGAIPSSTNVGPNTF-NH2 (disulfide 2-7 (inferred), Synthetic) | 2140 pM
K([γGlu-γGlu-C20 diacid])CNTATCATQRLANFLRHSSPNFGAIPSSTPVGPRTY-NH2 (disulfide 2-7 (inferred), Synthetic) | 8660 pM
K([γGlu-γGlu-C20 diacid])CNTATCATQRLAEFLRHSSPNFGAIPSSTNVGHETY-NH2 (disulfide 2-7 (inferred), Synthetic) | 7050 pM
K([γGlu-γGlu-C20 diacid])CNTATCATQRLADFLRHSSPNFGAIPSSTNVGPRTY-NH2 (disulfide 2-7 (inferred), Synthetic; also called compound 130) | 7280 pM
K([γGlu-γGlu-C20 diacid])CNTATCATQRLA[dD]FLRHSSPNFGAIPSSTNVGSRTY-NH2 (disulfide 2-7 (inferred), Synthetic) | 100000 pM
K([γGlu-γGlu-C20 diacid])CNTATCATQRLASFLRHSSPNFGAIPSSTNVGPETY-NH2 (disulfide 2-7 (inferred), Synthetic; also called compound 120) | 887 pM
